Results from patent US20150259721A1.

Target: Her2 (UniProt P04626)
Assay: cell-based or functional assay

Question: How did the EC50 nM, concentration of the drug to kill 50% of the tumor cells in vitro, HCC1954 cells turn out when 4D5-AzAb (HC274)-AF (antibody) was run?
Answer: 0.0212 nM

Question: What about the EC50 nM, concentration of the drug to kill 50% of the tumor cells in vitro, SKOV3 cells of the same substance?
Answer: 0.187 nM

Question: And the EC50 nM, in vitro potency (cytotoxicity), SKBR3 cells?
Answer: 0.0074 nM

Question: What about the EC50 nM, in vitro potency (cytotoxicity), SKOV3 cells of the same substance?
Answer: 0.019 nM

Question: How did the EC50 nM, concentration of the drug to kill 50% of the tumor cells in vitro, HCC1954 cells turn out when 4D5-AzAb (HC274: LC81)-AF (antibody) was run?
Answer: 0.0149 nM

Question: What about the EC50 nM, concentration of the drug to kill 50% of the tumor cells in vitro, SKOV3 cells of the same substance?
Answer: 0.0523 nM

Question: 4D5-AzAb (HC359)-AF (antibody) was tested. Which EC50 nM, concentration of the drug to kill 50% of the tumor cells in vitro, HCC1954 cells did it give?
Answer: 0.0241 nM

Question: And the EC50 nM, concentration of the drug to kill 50% of the tumor cells in vitro, PC3 cells?
Answer: 1.33 nM

Question: And the EC50 nM, concentration of the drug to kill 50% of the tumor cells in vitro, SKOV3 cells?
Answer: 0.16 nM

Question: For 4D5-AzAb (LC81)-AF (antibody), which EC50 nM, concentration of the drug to kill 50% of the tumor cells in vitro, HCC1954 cells is on record?
Answer: 0.0437 nM

Question: What about the EC50 nM, concentration of the drug to kill 50% of the tumor cells in vitro, PC3 cells of the same substance?
Answer: 1.13 nM

Question: And the EC50 nM, concentration of the drug to kill 50% of the tumor cells in vitro, SKOV3 cells?
Answer: 0.201 nM
